In paper PMC9482650, “Quantitative fragmentomics allow affinity mapping of interactomes” (Nature Communications, 2022):

T1: LNX2_3, Q8N448
T1 sequence (Q8N448 463-564, limits assumed, looked up): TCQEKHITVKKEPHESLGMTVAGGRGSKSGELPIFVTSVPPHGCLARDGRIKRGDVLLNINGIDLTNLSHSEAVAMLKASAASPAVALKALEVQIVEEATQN


Biological target: T1, LNX2_3, Q8N448
Assay: holdup assay
Parameters: key: below the threshold = too weak to quantify, mostly under pKd 3.1 to 4
Settings: plain residues with an end cap or a label only (N-terminal biotin on a linker: gsgsgs; C-terminal amide)

| pKd | Binder |
| --- | --- |
| below the threshold | TLSLTDSSVDGIPPYR [AXIN1_int, O15169] |

Same assay, conditions: plain residues with an end cap or a label only (N-terminal biotin on a linker: ttds)

| Binder | pKd |
| --- | --- |
| ERKLSSESQV [LRP4, O75096] | below the threshold |
| TVASEKESVM [SLC1A5, Q15758] | below the threshold |
| IDNDTESTAL [ARHGAP17, Q68EM7] | below the threshold |

Now from value to binder:

| pKd | Binder |
| --- | --- |
| below the threshold | VLRLQSETSV [VANGL1, Q8TAA9] |
| below the threshold | GQDSREETQL [KCNT2, Q6UVM3] |
| below the threshold | IYVPEAQTRL [DLGAP4, Q9Y2H0] |
